From patent US12371456B2, “Proteins for the treatment of epithelial barrier function disorders” (Genevive, Inc., priority 2017, dated 2025)

Experiments:
[1] = tested on: HCT8 enterocytes and HT29-MTX goblet cells (epithelial monolayer) co-cultured with U937 monocytes; assay: Co-culture trans-epithelial electrical resistance (TEER) assay, barrier disruption by heat killed E. coli; format: cell-based, human
Experimental: Assays were performed as described below in trans-well plates where co-cultures of multiple cell types were performed utilizing a permeable membrane to separate cells. In the apical (top) chamber, human colonic epithelial cells, consisting of a mixture of enterocytes and goblet cells, were cultured until cells obtained tight junction formation and barrier function capacity as assessed by measurement of trans-epithelial electrical resistance (TEER). In the basolateral chamber, monocytes were cultured separately. Epithelial cells were primed with inflammatory cytokines.
Cell culture. The HCT8 human enterocyte cell line (ATCC Cat. No. CCL-244) was maintained in RPMI-1640 medium supplemented with 10% fetal bovine serum, 100 IU/ml penicillin, 100 µg/ml streptomycin, 10 µg/ml gentamicin and 0.25 µg/ml amphotericin (cRPMI). HT29-MTX human goblet cells (Sigma-Aldrich (St. Louis, MO; Cat. No. 12040401) were maintained in DMEM medium with 10% fetal bovine serum, 100 IU/ml penicillin, 100 µg/ml streptomycin, 10 µg/ml gentamicin and 0.25 µg/ml amphotericin (cDMEM). Epithelial cells were passaged by trypsinization and were used between 5 and 15 passages following thawing from liquid nitrogen stocks. U937 monocytes (ATCC Cat. No. 700928) were maintained in cRPMI medium as a suspension culture, and split by dilution as needed to maintain cells between 5×10^5 and 2×10^6 cells/ml. U937 cells were used up to passage 18 following thawing from liquid nitrogen stocks.
Epithelial cell culture. A mixture of HCT8 enterocytes and HT29-MTX goblet cells were plated at a 9:1 ratio, respectively, in the apical chamber of the transwell plate as described previously (Berget et al., 2017, Int J Mol Sci, 18:1573; Beduneau et al., 2014, Eur J Pharm Biopharm, 87:290-298). […] Epithelial cells were trypsinized from culture flasks and viable cells determined by trypan blue counting. […]
Co-culture assay. […] Trans-epithelial electrical resistance (TEER) readings were measured after the IFN-γ treatment and were used as the pre-treatment TEER values. […]

TNF-α = TNF-α production by monocytes in co-culture TEER assay (Luminex); format: cell-based, human; conditions: pre-incubated 6 hours prior to HK E. coli; FIG. 2A
Experimental: Production of the pro-inflammatory cytokines TNF-α and IL-23 by monocytes was measured in the tissue culture supernatant from the basolateral chamber of the co-culture TEER assay performed in Example 2. Following TEER readings, the supernatants were centrifuged at 10,000 g for 5 minutes at 4° C. to remove cell debris. Luminex analysis was performed according to the manufacturer's instructions (Magpix instrument and xPonent software version 4.2; Luminex Corporation (Austin, TX)). Luminex analysis was performed to determine the pg/ml concentration of TNF-α and IL-23 produced by monocytes. Luminex analysis utilizes a bead-based system for quantification of multiple cytokines from a single sample. Like an ELISA, Luminex beads are coated with a capture antibody, and incubation with samples allows the target to bind to the capture antibody. Beads are washed and incubated with a fluorescently labeled detection antibody for quantification of bound target. Cytometric analysis is used to differentiate bead populations, which are loaded with differential fluorescent dyes, and to quantify cytokine levels by measuring detection antibody signal. TNF-α production in untreated cells and cells pre-incubated with SG-14 for 6 hours prior to HK E. coli treatment were normalized to pg/ml concentrations elicited by HK E. coli which was set to 1.0. […]

IL-10 = IL-10 production by monocytes in co-culture TEER assay (Luminex); format: cell-based, human; conditions: pre-incubated 6 hours prior to HK E. coli; FIG. 3
Experimental: IL-10 production was measured in tissue culture supernatant from the basolateral chamber of the co-culture TEER assay described in Example 2 containing monocytes. Luminex analysis was performed to determine the pg/ml concentration of IL-10 produced by the monocytes. IL-10 production in untreated cells and cells pre-incubated with SG-14 for 6 hours prior to HK E. coli treatment were normalized to pg/ml concentrations elicited by HK E. coli which was set to 1.0. Pre-incubation with SG-14 increased IL-10 production to 1.21. The graph in FIG. 3 represents data pooled from two individual experiments (n=6).

muc2 = muc2 gene expression in epithelial cell monolayer (qRT-PCR); format: cell-based, human; conditions: SG-14 1 pg/ml (40 nM) 6 hours prior to HK E. coli for 24 hours; p=0.87; FIG. 4
Experimental: Gene expression was measured in the epithelial cell monolayer from the apical chamber of the co-culture TEER assay described in Example 2. Total RNA was isolated from the epithelial cell monolayer, cDNA was synthesized. qRT-PCR was performed on cDNA generated from the HCT8 & HT29-MTX cells treated with SG-14 ([…]; 40 nM) for 6 hours prior to addition of HK E. coli for 24 hours. muc2 gene expression is graphed as mean fold change ±SEM. Statistical analysis was performed by a one-way ANOVA compared to HK E. coli and a Fishers LSD test was used for multiple comparisons.

[2] = tested on: DSS model of inflammatory bowel disease; assay: DSS model: 4 KDa-FITC dextran translocation across the epithelial barrier; format: in vivo, C57BL/6 mice; conditions: 50 nmoles/kg i.p. b.i.d., 2.5% DSS 6 days; FIG. 6
Experimental: Eight-week old C57BL/6 mice were housed 5 animals were cage and given food and water ad libitum for 7 days. Following the 7-day acclimation period, treatments were initiated concurrently with addition of 2.5% DSS to the drinking water. […] The mice were treated with 2.5% dextran sodium sulfate (DSS) in their drinking water for 6 days. Treatments were continued with SG-14 or […]-GLP2 twice a day (b.i.d.) in the morning and evening (every 8 and 16 hr) with i.p. injections at 50 nmoles/kg. Fresh 2.5% DSS drinking water was prepared every 2 days. On day six, mice were fasted for four hours and then orally gavaged with 600 mg/kg 4 KDa dextran labeled with fluorescein isothiocyanate (FITC) [4 KDa-FITC]. One hour after the 4 KDa-FITC gavage mice were euthanized, blood was collected and FITC signal was measured in serum. […] Results are shown in FIG. 6, and are presented as mean SEM. The graph in FIG. 6 represents data pooled from the single experiment (n=10).

[3] = tested on: DSS model of inflammatory bowel disease; assay: DSS model: gross pathology score; format: in vivo, C57BL/6 mice; conditions: FIG. 9
Experimental: Eight-week old C57BL/6 mice were housed 5 animals were cage and given food and water ad libitum for 7 days. Following the 7-day acclimation period, treatments were initiated concurrently with addition of 2.5% DSS to the drinking water. […] The mice were treated with 2.5% dextran sodium sulfate (DSS) in their drinking water for 6 days. Treatments were continued with SG-14 or […]-GLP2 twice a day (b.i.d.) in the morning and evening (every 8 and 16 hr) with i.p. injections at 50 nmoles/kg. Fresh 2.5% DSS drinking water was prepared every 2 days. Gross pathology observations were made in mice included in the concurrent DSS model performed in this Example. […] The scoring system used was: (0)=no gross pathology, (1)=streaks of blood visible in feces, (2)=completely bloody fecal pellets, (3) bloody fecal material visible in cecum, (4) bloody fecal material in cecum and loose stool, (5)=rectal bleeding. The graph in FIG. 9 represents data pooled from the single experiment (n=10).

[4] = tested on: DSS model of inflammatory bowel disease; assay: DSS model: colon length and colon weight to length ratio; format: in vivo, C57BL/6 mice; conditions: DSS treated mice
Experimental: Eight-week old C57BL/6 mice were housed 5 animals were cage and given food and water ad libitum for 7 days. Following the 7-day acclimation period, treatments were initiated concurrently with addition of 2.5% DSS to the drinking water. […] The mice were treated with 2.5% dextran sodium sulfate (DSS) in their drinking water for 6 days. Treatments were continued with SG-14 or […]-GLP2 twice a day (b.i.d.) in the morning and evening (every 8 and 16 hr) with i.p. injections at 50 nmoles/kg. Fresh 2.5% DSS drinking water was prepared every 2 days. Colon length was measured in mice included in the DSS model described in Example 7. […] The graphs in FIG. 10 and FIG. 11 represent data pooled from the single experiment (n=10).

B1: SG-14: Eubacterium eligens protein comprising SEQ ID NO:3; tested form expressed in E. coli, with exogenous GPLG at N-terminus and PHRD at C-terminus (protein)
chain: GCARNSTSTTTASGGETTITSAITKEDTDVTHADDAENYRVSITGDFTVTSDTSDGVTQSGSVYTITKAGEYTVTGLLSEGQLIVDAGNENEVTIVLNGTSITCSSGSPIYVKNASEVKIKSEENSFNEVIDNRNEATEDSSDDAGNAAIYATCDLKLVGKGALVVTGNYNNGIQSKDDLSIKNVIVKVTAVNNAVKVNDAVDIESGNIIAISAKGDGIKTSNSSISNKGNQKGIVTITSGNIDIYAACDGIDASYGADISGDGNLNIYTDTYSEYSEEVTSSGSSSGTSSGRDSSANKSASANTVSYVATSDTIANAPSGFGGGNMGSGNAPDMSNGNAPNMNGSSDRNKTGGNRPGMPGDFNESGNSSGQSYSTKGIKAESEINISGFTINICSTDDGIHANSDSGVLETGEDGKGTIVINGGSITISSGDDGMHADKQLDVNDGYINVVTSYEGLEAMTINLNGGKIYVYATDDGINACTGDGKTSPIVNVTGGYIDVTTTSGDTDGIDSNGNYVQTGGFVLVKGGSSSGNVSGSIDVDGTVTITGGTCVALGGVCETPVNSANAYVLGSVSFSSGSYSLKDSSGNEVISFTVDGSFSNGWICSDTLTTGSSYTLYRGADSIADWTQE
modifications: N-terminal GPLG and C-terminal PHRD
TEER of epithelial cell barrier (percent of untreated) ([1]; SG-14 1 pg/ml (40 nM) added 1 hour (FIG. 1A; text also says 30 minutes) before HK E. coli, HK E. coli alone 70.0%): 72.2% | TEER of epithelial cell barrier (percent of untreated) ([1]; SG-14 1 pg/ml (40 nM) pre-incubated 6 hours before HK E. coli (FIG. 1B), without SG-14 71.4%): 78.7% | TNF-α production normalized to HK E. coli (set to 1.0) (TNF-α): 0.77 | IL-10 production normalized to HK E. coli (set to 1.0) (IL-10): 1.21 | muc2 gene expression vs HK E. coli without pre-treatment (muc2): slight inhibition | 4 KDa-FITC dextran in serum vs DSS mice treated with vehicle [2]: significant reduction | Magnitude of 4 KDa-FITC dextran translocation vs Gly2-GLP2 [2]: even lower than the positive control | Gross pathology score (0-5) vs vehicle treated DSS mice ([3]; 50 nmoles/kg i.p. b.i.d., 2.5% DSS): significantly improved gross pathology | Clinical scores vs DSS mice treated with Gly2-GLP2 [3]: No differences | Colon length ([4]; FIG. 10): prevented colon shortening | Ratio between colon weight and length ([4]; FIG. 11): significant reduction
